# Biological target: human BimEL (Bcl-2-Interacting Mediator of cell death, Extra Long isoform)
protein,measurement,value
human RSK1 (p90rsk/MAPKAP kinase-1) (protein) MEQDPKPPRLRLWALIPWLPRKQRPRISQTSLPVPGPGSGPQRDSDEGVLKEISITHHVKAGSEKADPSHFELLKVLGQGSFGKVFLVRKVTRPDSGHLYAMKVLKKATLKVRDRVRTKMERDILADVNHPFVVKLHYAFQTEGKLYLILDFLRGGDLFTRLSKEVMFTEEDVKFYLAELALGLDHLHSLGIIYRDLKPENILLDEEGHIKLTDFGLSKEAIDHEKKAYSFCGTVEYMAPEVVNRQGHSHSADWWSYGVLMFEMLTGSLPFQGKDRKETMTLILKAKLGMPQFLSTEAQSLLRALFKRNPANRLGSGPDGAEEIKRHVFYSTIDWNKLYRREIKPPFKPAVAQPDDTFYFDTEFTSRTPKDSPGIPPSAGAHQLFRGFSFVATGLMEDDGKPRAPQAPLHSVVQQLHGKNLVFSDGYVVKETIGVGSYSECKRCVHKATNMEYAVKVIDKSKRDPSEEIEILLRYGQHPNIITLKDVYDDGKHVYLVTELMRGGELLDKILRQKFFSEREASFVLHTIGKTVEYLHSQGVVHRDLKPSNILYVDESGNPECLRICDFGFAKQLRAENGLLMTPCYTANFVAPEVLKRQGYDEGCDIWSLGILLYTMLAGYTPFANGPSDTPEEILTRIGSGKFTLSGGNWNTVSETAKDLVSKMLHVDPHQRLTAKQVLQHPWVTQKDKLPQSQLSHQDLQLVKGAMAATYSALNSSKPTPQLKPIESSILAQRRVRKLPSTTL,in vitro kinase assay: phosphorylation of BimEL on serines 93/94/98,RSK1 phosphorylates BimEL in vitro on serines 93/94/98 (the degron serines)

# From patent publication US20090318535
